Results as given in patent US5492822A, “Method for recovering purified 100,000 dalton molecular weight fraction of human pancreatic cholesterol esterase” (Lange, III; Louis G., priority 1995, dated 1996).

Assays:
[1] = system: human pancreatic cholesterol esterase; experiment: Binding of 125I-cholesterol esterase to small intestine vesicles and its displacement; settings: in the presence of 5 mM taurocholate
Method: (§1) Vesicles contained 1.0 mg protein/ml, 30 ug total cholesterol/mg protein and 50 ug endogenous heparin/mg protein. ^125 I-cholesterol esterase (100K or 67K form) was added (0 to 400 pmol; 2,000 dpm/pmol) to 100 ug of protein of small intestine vesicles in 10 mM Tris-Cl, pH 7.2 for 15 min. at 37°. The concentration of offered ^125 I-cholesterol esterase varied between 10 nM and 1 uM. Experiments were performed utilizing 1% blotto to decrease nonspecific protein binding to the vesicles. After the 15 minute incubation at 37°, the reaction was quenched and the assay mixtures were filtered through wells of a Millipore system containing 0.2 micron pore filters presoaked in buffer. The filtrate was-collected to assess free (unbound) enzyme, and the filters were then immediately washed with 15 ml of cold buffer and counted for ^125 I. Total binding was defined as ^125 I-dpm bound to filter paper minus ^125 I-dpm detected in the same reaction without vesicles (background). Nonspecific binding (radioactivity bound to the vesicles in the presence of excess cold ligand) was quantitated as the amount of ^125 I-cholesterol esterase binding in the presence of a 1000-fold molar excess of unlabeled cholesterol esterase as described above. Specific binding is defined as the difference between total bound dpm and nonspecific-bound dpm (converted to moles bound by dividing by the SRA).

[2] = target: T1, human pancreatic cholesterol esterase (Homo sapiens, UniProt P19835); experiment: as above; settings: specific binding, 15 min at 37°, 10 mM Tris-Cl pH 7.2; read-out: KD of cholesterol esterase binding to small intestine vesicles (Scatchard analysis)
T1 construct: from tissue; host or cells: human pancreas (autopsy)
T1 sequence (P19835 21-753): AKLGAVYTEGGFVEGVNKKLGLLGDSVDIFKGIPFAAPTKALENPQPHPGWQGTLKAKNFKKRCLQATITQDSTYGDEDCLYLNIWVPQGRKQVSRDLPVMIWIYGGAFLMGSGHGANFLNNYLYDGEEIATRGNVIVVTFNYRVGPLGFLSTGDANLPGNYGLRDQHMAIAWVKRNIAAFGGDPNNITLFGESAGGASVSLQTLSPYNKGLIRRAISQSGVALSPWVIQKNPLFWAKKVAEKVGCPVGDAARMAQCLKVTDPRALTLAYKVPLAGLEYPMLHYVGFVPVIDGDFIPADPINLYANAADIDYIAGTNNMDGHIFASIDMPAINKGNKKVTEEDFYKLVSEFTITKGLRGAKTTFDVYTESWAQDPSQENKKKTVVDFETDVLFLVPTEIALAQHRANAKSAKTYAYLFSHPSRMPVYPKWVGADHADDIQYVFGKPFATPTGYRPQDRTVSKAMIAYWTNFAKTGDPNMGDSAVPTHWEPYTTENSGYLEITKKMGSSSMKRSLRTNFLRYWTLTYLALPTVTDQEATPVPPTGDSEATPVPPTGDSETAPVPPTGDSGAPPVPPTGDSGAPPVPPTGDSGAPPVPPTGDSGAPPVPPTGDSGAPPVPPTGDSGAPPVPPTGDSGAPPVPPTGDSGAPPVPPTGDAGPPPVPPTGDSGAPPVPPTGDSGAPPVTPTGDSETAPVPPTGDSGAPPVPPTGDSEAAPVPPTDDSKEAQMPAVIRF
Method: as §1

[3] = Cleavage of cholesterol oleate, 100 kDa enzyme compared with 52 kDa triglyceride lipase; type: biochemical, human
From the text: (§2) Human pancreatic cholesterol esterase (100 kDa) and human pancreatic triglyceride lipase (52 kDa) were purified to homogeneity (Examples 1 and 3), and their abilities to cleave triglycerides and cholesteryl esters were compared. […] Virtually the same results were found with cholesteryl esters; the 100 kDa enzyme cleaved cholesterol oleate at a rate at least 490-fold greater than that found for the 52 kDa triglyceride lipase.

[4] = target: T2, human pancreatic cholesterol esterase (100 kDa) (Homo sapiens, UniProt P19835); experiment: Triolein hydrolysis by human pancreatic cholesterol esterase (100 kDa); type: biochemical; settings: purified 100 kDa esterase, in the presence of 5 mM taurocholate
T2 construct: from tissue; host or cells: human pancreas (autopsy)
T2 sequence (P19835 21-753): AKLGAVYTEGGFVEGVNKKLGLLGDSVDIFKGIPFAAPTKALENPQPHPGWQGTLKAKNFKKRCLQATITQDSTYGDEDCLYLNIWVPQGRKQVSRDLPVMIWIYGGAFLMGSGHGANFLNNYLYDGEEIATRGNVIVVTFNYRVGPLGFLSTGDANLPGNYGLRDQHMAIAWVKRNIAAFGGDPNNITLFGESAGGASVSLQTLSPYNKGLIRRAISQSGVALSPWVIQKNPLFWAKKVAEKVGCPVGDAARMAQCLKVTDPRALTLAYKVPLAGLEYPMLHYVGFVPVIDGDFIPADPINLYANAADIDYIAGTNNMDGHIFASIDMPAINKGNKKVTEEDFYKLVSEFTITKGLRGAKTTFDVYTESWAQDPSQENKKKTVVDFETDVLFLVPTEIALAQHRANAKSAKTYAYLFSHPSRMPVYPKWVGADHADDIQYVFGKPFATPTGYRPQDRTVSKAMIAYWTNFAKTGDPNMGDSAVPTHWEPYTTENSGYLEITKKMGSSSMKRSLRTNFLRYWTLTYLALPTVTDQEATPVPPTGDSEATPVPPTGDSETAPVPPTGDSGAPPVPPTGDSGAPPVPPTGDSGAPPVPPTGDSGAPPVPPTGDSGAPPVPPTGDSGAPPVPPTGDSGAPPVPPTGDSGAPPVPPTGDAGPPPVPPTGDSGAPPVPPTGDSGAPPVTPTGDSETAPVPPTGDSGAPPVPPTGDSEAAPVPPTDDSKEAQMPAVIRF
From the text: as §2

[5] = system: intestinal cells (colonic adenocarcinoma cells CaCo-2); experiment: Cellular uptake of 3H-cholesterol from 3H-cholesterol oleate; type: cell-based; settings: 5 nM human pancreatic cholesterol esterase (100 K), 1.5 mM taurocholate, no heparin
Method: For example, intestinal cells (colonic adenocarcinoma cells CaCo-2, American Type Cell Culture) were grown in T150 flasks in medium consisting of DME, 10% v/v fetal bovine serum, 50 ug/ml gentamicin and 2 mM sodium pyruvate. Uptake experiments were conducted using 10^5 intestinal cells in PBS buffer containing 5 mM CaCl2, pH 7.4 in the presence of 5 uM ^3 H-cholesterol oleate (SRA=50 dpm/pmol) embedded in phosphatidylcholine vesicles along with 10% v/v lipoprotein-depleted serum and 1.5 mM taurocholate. At time zero, 5 nM human pancreatic cholesterol esterase (100 K, homogeneous) was added to one set of flasks, an equivalent volume of buffer to another set, and 1 mg/ml final concentration bulk heparin together with 5 nM enzyme to a third set. At selected times, i.e., 0, 15, 30, 60, 120 and 480 min, medium was removed and the cells were washed with medium to allow quantitation of ^3 H-cholesterol uptake. In the absence of enzyme, cellular uptake of ^3 H-cholesterol was linear and occurred at a rate of 400 dpm/hr/10^5 cells. In the presence of cholesterol esterase, the rate of ^3 H-cholesterol uptake was 1,800 dpm/hr/10^5 cells.

B1: Human pancreatic cholesterol esterase (100K form): 100,000 molecular weight form of human pancreatic cholesterol esterase purified over heparin agarose (protein, UniProt P19835 21-753, looked up)
Bile salt-activated lipase: AKLGAVYTEGGFVEGVNKKLGLLGDSVDIFKGIPFAAPTKALENPQPHPGWQGTLKAKNFKKRCLQATITQDSTYGDEDCLYLNIWVPQGRKQVSRDLPVMIWIYGGAFLMGSGHGANFLNNYLYDGEEIATRGNVIVVTFNYRVGPLGFLSTGDANLPGNYGLRDQHMAIAWVKRNIAAFGGDPNNITLFGESAGGASVSLQTLSPYNKGLIRRAISQSGVALSPWVIQKNPLFWAKKVAEKVGCPVGDAARMAQCLKVTDPRALTLAYKVPLAGLEYPMLHYVGFVPVIDGDFIPADPINLYANAADIDYIAGTNNMDGHIFASIDMPAINKGNKKVTEEDFYKLVSEFTITKGLRGAKTTFDVYTESWAQDPSQENKKKTVVDFETDVLFLVPTEIALAQHRANAKSAKTYAYLFSHPSRMPVYPKWVGADHADDIQYVFGKPFATPTGYRPQDRTVSKAMIAYWTNFAKTGDPNMGDSAVPTHWEPYTTENSGYLEITKKMGSSSMKRSLRTNFLRYWTLTYLALPTVTDQEATPVPPTGDSEATPVPPTGDSETAPVPPTGDSGAPPVPPTGDSGAPPVPPTGDSGAPPVPPTGDSGAPPVPPTGDSGAPPVPPTGDSGAPPVPPTGDSGAPPVPPTGDSGAPPVPPTGDAGPPPVPPTGDSGAPPVPPTGDSGAPPVTPTGDSETAPVPPTGDSGAPPVPPTGDSEAAPVPPTDDSKEAQMPAVIRF
- specific binding to vesicles retained [1]: 72%
- Kd [2]: 100 nM
- rate of cholesterol oleate cleavage relative to the 52 kDa triglyceride lipase [3]: at least 490 fold
- rate of triolein hydrolysis [4]: 1,970 nmol/hr/g pancreas
- rate of 3H-cholesterol uptake [5]: 1,800 dpm/hr/10^5 cells
